Measurements published in paper PMC8967717 (Nature, 2022).
Several values for one entry are separate records, joined by “and”; a condition that tells them apart may be missing. Equal values may be shown once.

B1: XGv289 Fab fragment (Fab, V domains shown)
VH: QVQLVQSGAEVKKPGASLKVSCRASGYTFTSHFIHWVRQAPGQGLEWMGIINPSGGASYAQNFRDRVTMTTDPSTSTVYMELGSLRSEDTAVYYCARAEGSSWLGWFDPWGQGTLVTVSS
VL: QSVLTQPPSASGTPGQRVTIPCSGSSSNIGNNYVYWYQQLPGTAPKLLVYGNNQRPSGVPDRFSVSKSGTSASLAISGLRSEDEADYYCAAWDDGLSGSGWVFGGGTKLTVL
B2: XGv289 (antibody, V domains shown)
VH: QVQLVQSGAEVKKPGASLKVSCRASGYTFTSHFIHWVRQAPGQGLEWMGIINPSGGASYAQNFRDRVTMTTDPSTSTVYMELGSLRSEDTAVYYCARAEGSSWLGWFDPWGQGTLVTVSS
VL: QSVLTQPPSASGTPGQRVTIPCSGSSSNIGNNYVYWYQQLPGTAPKLLVYGNNQRPSGVPDRFSVSKSGTSASLAISGLRSEDEADYYCAAWDDGLSGSGWVFGGGTKLTVL
B3: XGv265 Fab fragment (Fab, V domains shown)
VH: QITLKESGPTLVKPTQTLTLTCNFSGFSLNTYGVGVGWIRQPPGKALEWLALIYWDGDERYGPFFKNKVTIAKDTSKNQVVLTMTNMDPVDTATYYCARHLIPTIFDYWGQGTLVTVSS
VL: QSALTQPASVSGSPGQSITISCTGTSSDVGGSNYVSWYQHHPDRAPKLLIYEVTNRPSGVSNRFSGSKSANTASLTISGLQAEDEADYYCSSYTTTSTHILFGGGTKLTV
B4: XGv265 (antibody, V domains shown)
VH: QITLKESGPTLVKPTQTLTLTCNFSGFSLNTYGVGVGWIRQPPGKALEWLALIYWDGDERYGPFFKNKVTIAKDTSKNQVVLTMTNMDPVDTATYYCARHLIPTIFDYWGQGTLVTVSS
VL: QSALTQPASVSGSPGQSITISCTGTSSDVGGSNYVSWYQHHPDRAPKLLIYEVTNRPSGVSNRFSGSKSANTASLTISGLQAEDEADYYCSSYTTTSTHILFGGGTKLTV
B5: XGv282 monoclonal antibody (antibody, V domains shown)
VH: QVQLVQSGAEVKKPGSSVKVSCKASGDTFSSYTFSWVRQAPGQGLEWMGRSIPIVGKAIYAQEFQGRVTISADRSTTTVYMELSSLRSDDTAVYYCARDQSGFDFFYYDHWGQGTLVAVSS
VL: QSVLTQPPSASGTPGQRVTISCSGSGSNIGSNTINWYQQLPGTAPKVLIYRNNERPSGVPDRFSGSKSGTSASLTISGLQSEDEAYYHCAAWDDSLNGPVFGGGTKLTVL
notes: IgG1; copies: 2 + 2
B6: XGv282 Fab fragment (Fab, V domains shown)
VH: QVQLVQSGAEVKKPGSSVKVSCKASGDTFSSYTFSWVRQAPGQGLEWMGRSIPIVGKAIYAQEFQGRVTISADRSTTTVYMELSSLRSDDTAVYYCARDQSGFDFFYYDHWGQGTLVAVSS
VL: QSVLTQPPSASGTPGQRVTISCSGSGSNIGSNTINWYQQLPGTAPKVLIYRNNERPSGVPDRFSGSKSGTSASLTISGLQSEDEAYYHCAAWDDSLNGPVFGGGTKLTVL
B7: XGv282 (antibody, V domains shown)
VH: QVQLVQSGAEVKKPGSSVKVSCKASGDTFSSYTFSWVRQAPGQGLEWMGRSIPIVGKAIYAQEFQGRVTISADRSTTTVYMELSSLRSDDTAVYYCARDQSGFDFFYYDHWGQGTLVAVSS
VL: QSVLTQPPSASGTPGQRVTISCSGSGSNIGSNTINWYQQLPGTAPKVLIYRNNERPSGVPDRFSGSKSGTSASLTISGLQSEDEAYYHCAAWDDSLNGPVFGGGTKLTVL
B8: XGv347 monoclonal antibody (antibody, V domains shown)
VH: QMQLVQSGPEVKKPGTSVKVSCKASGFTFTDVSSLQWVRQARGQRLEWIGWTVVGTGNTNYAPRFQERVTITTDKSTSTAYMELSSLRSEDTAVYYCAAPFCSETSCSDGFDLWGQGTKVTVSS
VL: EIVLTQSPGTLSLSPGDRATLSCRASQSVRISYLAWYQQKPGQAPRLLISGSSSRATGIPDRFSASGSGTDFALTISRLEPEDFAVYYCQQYDNSPWTFGQGTKVEVK
notes: copies: 2 + 2
B9: XGv347 (antibody, V domains shown)
VH: QMQLVQSGPEVKKPGTSVKVSCKASGFTFTDVSSLQWVRQARGQRLEWIGWTVVGTGNTNYAPRFQERVTITTDKSTSTAYMELSSLRSEDTAVYYCAAPFCSETSCSDGFDLWGQGTKVTVSS
VL: EIVLTQSPGTLSLSPGDRATLSCRASQSVRISYLAWYQQKPGQAPRLLISGSSSRATGIPDRFSASGSGTDFALTISRLEPEDFAVYYCQQYDNSPWTFGQGTKVEVK
B10: XGv347 Fab fragment (Fab, V domains shown)
VH: QMQLVQSGPEVKKPGTSVKVSCKASGFTFTDVSSLQWVRQARGQRLEWIGWTVVGTGNTNYAPRFQERVTITTDKSTSTAYMELSSLRSEDTAVYYCAAPFCSETSCSDGFDLWGQGTKVTVS
VL: EIVLTQSPGTLSLSPGDRATLSCRASQSVRISYLAWYQQKPGQAPRLLISGSSSRATGIPDRFSASGSGTDFTLTISRLEPEDFAVYYCQQYANSPWTFGQGTKVEV

Experiments:
[1] = molecular target: prefusion-stabilized SARS-CoV-2 Omicron (B.1.1.529) S trimer (SARS-CoV-2, Omicron B.1.1.529 (BA.1), A67V | Δ69–70 | T95I | G142D | Δ143–145 | Δ211 | L212I | ins214EPE | G339D | …); test: cryo-EM structure; conditions: both partners purified
[2] = molecular target: SARS-CoV-2 wild-type spike (S) protein (SARS-CoV-2, WT (MN908947), UniProt P0DTC2); test: cell-based or functional assay
[3] = molecular target: T1, SARS-CoV-2 Omicron RBD (ACROBiosystems, cat. no. SPD-C522e) (SARS-CoV-2, Omicron B.1.1.529 (BA.1), G339D | S371L | S373P | S375F | K417N | N440K | G446S | S477N | T478K | E484A | …); test: BLI; conditions: both partners purified
T1 construct: source: bought: ACROBiosystems

Row | Binder | stoichiometry N [1] | authentic virus IC50(μg/ml), Wild-type [2] | pseudovirus IC50(μg/ml), Wild-type [2] | also measured
1 | B1 | 3 Fabs per S trimer |  |  | 
2 | B2 |  | 0.0061 µg/mL | 0.00928 µg/mL | 
3 | B3 | 2 Fabs per S trimer |  |  | 
4 | B4 |  | 0.0122 µg/mL | 0.0105 µg/mL | 
5 | B5 |  |  |  | fold reduction in binding affinity against WT S [3]: 5 fold
6 | B6 | 3 Fabs per S trimer |  |  | 
7 | B7 |  | 0.00102 µg/mL | 0.007 µg/mL | 
8 | B8 |  |  |  | fold decrease in binding against WT S [3]: 40 fold
9 | B9 |  | 0.0061 µg/mL | 0.0685 µg/mL | 
10 | B10 | 3 Fabs per S trimer and 2 Fabs per S trimer |  |  | 
